# T1: Cynomolgus monkey PD-1-his protein (cynomolgus monkey PD-1 extracellular domain with his tag) (cynomolgus monkey, UniProt Q15116 25-165 (human entry))
# T1 construct: also called Cyno PD-1-his; not shown: his tag
# T1 chain: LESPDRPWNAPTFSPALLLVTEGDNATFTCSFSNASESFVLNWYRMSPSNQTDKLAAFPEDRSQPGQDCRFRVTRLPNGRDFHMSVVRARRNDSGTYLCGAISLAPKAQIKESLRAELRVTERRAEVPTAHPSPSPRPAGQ
# Columns and labels:
# [1] = molecular target: T2, human PD-1 (Uniprot: Q15116) on cells (human, UniProt Q15116 25-288); experiment: flow cytometry on CHO cells overexpressing human PD-1, fluorescent secondary antibody
# T2 construct: whole, on cells; The cell type is named under assay or readout; also called CHO-huPD-1 cells; CHO cells overexpressing human PD-1
# T2 sequence (Q15116 25-288, one chain of several): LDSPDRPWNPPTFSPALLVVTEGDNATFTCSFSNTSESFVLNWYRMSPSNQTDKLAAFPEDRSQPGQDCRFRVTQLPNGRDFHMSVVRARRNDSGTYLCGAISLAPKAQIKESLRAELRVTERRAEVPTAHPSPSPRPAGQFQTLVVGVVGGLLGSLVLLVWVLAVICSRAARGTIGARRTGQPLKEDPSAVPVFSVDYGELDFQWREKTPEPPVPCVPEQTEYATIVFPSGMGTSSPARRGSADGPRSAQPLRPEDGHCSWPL
# [2] = molecular target: T3, cynomolgus monkey PD-1 (Uniprot: BOLAJ3 as printed) on CHO-S cells (cynomolgus monkey); experiment: flow cytometry on CHO-S cells overexpressing cynomolgus monkey PD-1
# T3 construct: whole, on cells; also called CHO-cynoPD-1 cells; CHO cells overexpressing cynomolgus monkey PD-1
# From the text: (§1) By transfecting human PD-1 (Uniprot: Q15116), cynomolgus monkey PD-1 (Uniprot: BOLAJ3) cDNA pCHO1.0 vector (purchased from Invitrogen) into CHO-S cellsand following with pressure screening, CHO-S cells overexpressing human PD-1 (CHO-huPD-1 cells) and CHO-S cells overexpressing cynomolgus monkey PD-1 (CHO-cynoPD-1 cells) were produced. The overexpressed cells after expansion culture were adjusted to the appropriate cell density and added to a 96-well flow plate, centrifuged and then added with gradiently diluted samples, and incubated at 4° C. for 30 minutes. Washing was performed twice with PBS, fluorescent secondary antibody correspondingly diluted to the appropriate concentration was added, incubated at 4° C. for 30 minutes, and washed twice with PBS. The cells were resuspended in PBS, and detected on a CytoFlex flow cytometer, and the corresponding MFI was calculated. Graphpad software was used for graphical analysis to obtain EC₅₀ values.
# [3] = molecular target: T3, cynomolgus monkey PD-1 (Uniprot: BOLAJ3 …); experiment: flow cytometry on CHO cells overexpressing cynomolgus monkey PD-1 according to legend paragraph 157 and Example 11 (the title on the sheet prints CHO-huPD-1), fluorescent secondary antibody
# [4] = molecular target: T2, human PD-1 (Uniprot: Q15116) on cells; experiment: flow cytometry on activated human primary T cells, fluorescent secondary antibody
# [5] = molecular target: T1, Cynomolgus monkey PD-1-his protein …; experiment: BLI (ForteBio), antibody loaded on AHQ sensor, 100 nM PD-1-his in solution, monovalent, 1:1 model
# Method: (§2) The binding dissociation constant (KD) values of the antibody obtained in Example 1 binding to human and cynomolgus monkey PD-1 were determined by biofilm optical interference technology (ForteBio). Fortebio affinity determination was carried out according to the existing method (Este, P et al. High throughput solution-based measurement of antibody-antigen affinity and epitope binning. Mabs, 2013.5(2): p. 270-8), and the extracellular amino acid sequences of human and cynomolgus monkey PD-1 were as set forth in SEQ ID NO:20 and 21, respectively.
# (§3) The sensor loaded with antibody was exposed to 100 nM PD-1-his antigen until the plateau phase, and then the sensor was transferred to the assay buffer for at least 2 minutes for dissociation rate measurement. The kinetic analysis was performed using a 1:1 binding model.
# [6] = molecular target: T4, Human PD-1-his protein (human PD-1 extracellular domain with his tag) (human, UniProt Q15116 25-170); experiment: as above
# T4 construct: also called PD-1-his antigen; not shown: his tag
# T4 sequence (Q15116 25-170): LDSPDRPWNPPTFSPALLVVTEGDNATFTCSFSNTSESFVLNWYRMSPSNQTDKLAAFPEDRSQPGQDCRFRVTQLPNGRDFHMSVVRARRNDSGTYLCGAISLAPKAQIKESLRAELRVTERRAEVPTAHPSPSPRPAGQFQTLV
# Method: as §2, §3
# [7] = molecular target: T2, human PD-1 (Uniprot: Q15116) on cells; experiment: flow cytometry blocking assay on CHO cells overexpressing human PD-1; blocked ligand: bio-human PD-L1-Fc, SA-PE detection
# [8] = molecular target: T2, human PD-1 (Uniprot: Q15116) on cells; experiment: flow cytometry on CHO-S cells overexpressing human PD-1
# From the text: as §1
# [9] = molecular target: T2, human PD-1 (Uniprot: Q15116) on cells; experiment: flow cytometry, competition with bio-human PD-L1-Fc (0.5 µg/mL) on CHO-huPD-1 cells
binder,measurement,setting,value
"anti-PD-1 antibody ADI-54872 (antibody, human IgG1, kappa, L234A L235A, V domains shown, Full-length IgG (human IgG1 LALA constant region), expressed in HEK293 and purified on Protein A) VH: QVQLVQSGAEVKKPGASVKVSCKASGYTFTEYYIYWVRQAPGQGLEWIGGINPSNGGTNFNEKFKPRVTMTVDTSTSTAYMELSSLRSEDTAVYYCTVRDFRFDKGFKYWGQGTLVTVSS VL: EIVLTQSPATLSLSPGERATLSCRASKSVSTSGLNYVHWYQRKPGQAPRLLIYLGSYLDSGVPARFSGSGSGTDFTLTISSLEPEDFAVYYCQQSWELPLTFGGGTKVEIKR",EC50 (read off the curve),[1],~7 nM
same,EC50,[2],4.32 nM
same,EC50 (read off the curve),[3],~6 nM
same,EC50 (read off the curve),[4],~1 nM
same,Kd,[5],0.201 nM
same,Kd,[6],0.453 nM
same,IC50 (read off the curve),[7],~7 nM
same,EC50,[8],3.79 nM
same,IC50,[9],3.74 nM

# From patent US20250297009A1 (BIOTHEUS, published 2025)
